Source: US20130109846A1 (published 2013)

B1: 1h-35 (other)
VL: DIQMTQSPSSLSASVGDRVTITCRASQYIGSALSWYQQKPGKAPKLLIYRASNLQSGVPSRFSGSGSGTDFTLTISSLQPEDFATYYCQQLAIRPFTFGQGTKVEIKR
B2: 1h-35-5 (other)
VL: DIQMTQSPSSLSASVGDRVTITCRASQYIGSAISWYQQKPGRAPKLLIYRASYLQSGVPSRFSGSGSGTDFTLTISSLQPEDFATYYCQQLAIRPFTFGQGTKVGIKR
B3: 1h-35-2 (other)
VL: DIQMTQSPSSLSASVGDRVTITCRASQYIGSALGWYQQKPGKAPKLLIYRASHLQSGVPSRFSGSGSGTDFTLTISSLQPEDFATYYCQQLAIRPFTFGQGTKVEIKR
B4: 1h-100 (other)
VH: EVQLLESGGGLVQPGGSLRLSCAASGFTFESYWMSWVRQAPGKGLEWVSTIADTGGLTYYADSVKGRFTISRDNSKNTLYLQMNSLRAEDTAVYYCAKVAYVLDDQPAFDYWGQGTLVTVSS
B5: 1h-99-227 (other)
VH: EVQLLESGGGLVQPGGSLRLSCAASGFTFNHANMSWVRQAPGKGLEWVSWIEDTGTQTFYADSVKGRFTISRDNYKNTLYLQMNSLRAEDTAVYYCAKSPFGPLYGFDYRGQGTLVTVSS
B6: 1h-99-250 (other)
VH: EVQLLESGGGLVQPGGSLRLSCAASGFTFDSANMSWARQAPGKGLEWVSWIEATGGQTFYADSVKGRFTISRDNSKNTLYLQMNSLRAEDTAVYYCAKSPFGPLYGFDYRGQGTLVTVSS
B7: 1h-99-266 (other)
VH: EVQLLESGGGLVQPGGSLRLSCAASGFTFYRSNMSWVRQAPGKGLEWVSWIEAPGVQTFYADSVRGRFTISRDNSKNTLYLQMNSLRAEDTAVYYCARSPFGPLYGFDYRGQGTLVTVSS
B8: 1h-99-270 (other)
VH: EVQLLESGGGLVQPGGSLRLSCAASGFTFYKANMSWARQAPGKGLEWVSWIEASGVQTFYADSVKGRFTISRDNSKNTLYLQMNSLRAEDTAVYYCAKSPFGPLYGFDYRGQGTLVTVSS
B9: 1h-99-276 (other)
VH: EVQLLESGGGLVQPGGSLRLSCAASGFTFNRANMSWARQAPGKGLEWVSWIEDTGTQTFYADSVKGRFTISRDNSKNTLYLQMNSLRAEDTAVYYCAKSPFGPLYGFDYRGQGTLVTVSS
B10: 1h-99-260 (other)
VH: EVQLLESGGGLVQPGGSLRLSCAASGFTFDSANMSWARQAPGKGLEWVSWIEANGPQTFYADSVKGRFTISRDNSKNTLYLQMNSLRAEDTAVYYCAKSPFGPLYGFDYRGQGTLVTVSS
B11: 1h-99-245 (other)
VH: EVQLLESGGGLVQPGGSLRLSCAASGFTFDSANMSWARQAPGKGLEWVSWIEASGFQTFYADSVKGRFTISRDNSKNTLYLQMNSLRAEDTAVYYCAKSPFGPLYGFDYRGQGTLVTVSS
B12: 1h-99-230 (other)
VH: EVQLLESGGGLVQPGGSLRLSCAASGFTFDSANMSWVRQAPGKGLEWVSWIESIGVQTFYADSVKGRFTISRDNSKNTLYLQMNSLRAEDTAVYYCAKSPFGPLYGFDYRGQGTLVTVSS
B13: 1h-99-275 (other)
VH: EVQLLESGGGLVQPGGSLRLSCAASGFTFKDKNMSWARQAPGKGLEWVSWIEDTGTQTFYADSVKGRFTISRDNSKNTLYLQMNSLRAEDTAVYYCARSPFGPLYGFDYRGQGTLVTVSS
B14: 1h-99-263 (other)
VH: EVQLLESGGGLVQPGGSLRLSCAASGFTFYKANMSWVRQAPGKGLEWVSWIEASGVQTFYADSVKGRFTISRDNSKNTLYLQMNSLRAEDTAVYYCAKSPFGPLYGFDYRGQGTLVTVSS
B15: 1h-99-243 (other)
VH: EVQLLESGGGLVQPGGSLRLSCAASGFTFDSANMSWGRQAPGKGLEWVSWIEASGVQTFYADSVKGRFTISRDNSKNTLYLQMNSLRAEDTAVYYCAKSPFGPLYGFDYRGQGTLVTVSS
B16: 1h-99-249 (other)
VH: EVQLLESGGGLVQPGGSLRLSCAASGFTFDSANMSWVRQAPGKGLEWVSWIEDIGVQTFYADSVKGRFTISRDNSKNTLYLQMNSLRAEDTAVYYCAKSPFGPLYGFDYRGQGTLVTVSS
B17: 1h-99-256 (other)
VH: EVQLLESGGGLVQPGGSLRLSCAASGFTFDSANMSWVRQAPGKGLEWVSWIEAIGVQTFYADSVKGRFTISRDNSKNTLYLQMNSLRAEDTAVYYCAKSPFGPLYGFDYRGQGTLVTVSS
B18: 1h-99-297 (other)
VH: EVQLLESGGGLVQPGGSLRLSCAASGFTFDSANMSWARQAPGKGLEWVSWIEAIGVQTFYADSVKGRFTISRDNSKNTLYLQMNSLRAEDTAVYYCAKSPFGPLYGFDYRGQGTLVTVSS
B19: 1h-99-229 (other)
VH: EVQLLESGGGLVQPGGSLRLSCAASGFTFARTNMSWARQAPGKGLEWVSWIEDTGTQTFYADSVKGRFTISRDNSKNTLYLQMNSLRAEDTAVYYCAKSPFGPLYGFDYRGQGTLVTVSS
B20: 1h-99-277 (other)
VH: EVQLLESGGGLVQPGGSLRLSCAASGFTFDSANMSWARQAPGKGLEWVSWIEAVGVQTFYADSVKGRFTISRDNSKNTLYLQMNSLRAEDTAVYYCAKSPFGPLYGFDYRGQGTLVTVSS
B21: 1h-99-269 (other)
VH: EVQLLESGGGLVQPGGSLRLSCAASGFTFKSANMSWVRQAPGKGLEWVSWIEASGVQTFYADSVKGRFTISRDNSKNTLYLQMNSLRAEDTAVYYCAKSPFGPLYGFDYRGQGTLVTVSS
B22: 1h-99-278 (other)
VH: EVQLLESGGGLVQPGGSLRLSCAASGFTFPHSNMSWARQAPGKGLEWVSWIEDTGTQTFYADSVKGRFTISRDNSKNTLYLQMNSLRAEDTAVYYCAKSPFGPLYGFDYRGQGTLVTVSS
B23: 1h-99-267 (other)
VH: EVQLLESGGGLVQPGGSLRLSCAASGFTFYRSNMSWVRQAPGKGLEWVSWIEASGVQTFYADSVKGRFTISRDNSKNTLYLQMNSLRAEDTAVYYCAKSPFGPLYGFDYRGQGTLVTVSS
B24: 1h-99-268 (other)
VH: EVQLLESGGGLVQPGGSLRLSCAASGFTFKSANMSWVRQAPGKGLEWVSWIEAPGVQTFYADSVRGRFTISRDNSKNTLYLQMNSLRAEDTAVYYCARSPFGPLYGFDYRGQGTLVTVSS
B25: 1h-99-264 (other)
VH: EVQLLESGGGLVQPGGSLRLSCAASGFTFDKSNMSWVRQAPGKGLEWVSWIEAPGVQTFYADSVRGRFTISRDNSKNTLYLQMNSLRAEDTAVYYCARSPFGPLYGFDYRGQGTLVTVSS
B26: 1h-99-246 (other)
VH: EVQLLESGGGLVQPGGSLRLSCAASGFTFDSANMSWARQAPGKGLEWVSWIEASGGQTFYADSVKGRFTISRDNSKNTLYLQMNSLRAEDTAVYYCAKSPFGPLYGFDYRGQGTLVTVSS
B27: 1h-99-262 (other)
VH: EVQLLESGGGLVQPGGSLRLSCAASGFTFYKANMSWVRQAPGKGLEWVSWIEAPGVQTFYADSVRGRFTISRDNSKNTLYLQMNSLRAEDTAVYYCARSPFGPLYGFDYRGQGTLVTVSS
B28: 1h-99-254 (other)
VH: EVQLLESGGGLVQPGGSLRLSCAASGFTFDSANMSWARQAPGKGLEWVSWIESSGGQTFYADSVKGRFTISRDNSKNTLYLQMNSLRAEDTAVYYCAKSPFGPLYGFDYRGQGTLVTVSS
B29: 1h-99-228 (other)
VH: EVQLLESGGGLVQPGGSLRLSCAASGFTFHRANMSWVRQAPGKGLEWVSWIEDTGTQTFYADSVKGRFTISRDNSKNTLYLQMNSLRAEDTAVYYCAKSPFGPLYGSDYRGQGTLVTVSS
B30: 1h-99-236 (other)
VH: EVQLLESGGGLVQPGGSLRLSCAASGFTFDSANMSWVRQAPGKGLEWVSWIEAPGKQTFYADSVKGRFTISRDNSKNTLYLQMNSLRAEDTAVYYCAKSPFGPLYGFDYRGRGTLVTVSS
B31: 1h-99-241 (other)
VH: EVQLLESGGGLVQPGGSLRLSCAASGFTFDSANMSWVRQAPGKGLEWVSWIENNGPQTFYADSVKGRFTISRDDSKNTLYLQMNSLRAEDTAVYYCAKSPFGPLYGFDYRGQGTLVTVSS

Target: human CD28 (human, UniProt P10747 19-220)
Assay: cell-based or functional assay

Row | Binder | Luciferase assay (EC50) | MLR assay (EC50)
1 | B1 | 1900 nM | 2000 nM
2 | B2 | 261 nM | 248 nM
3 | B3 | 279 nM | 197 nM
4 | B4 | > 7000 nM | 
5 | B5 | 18 nM | 33 nM
6 | B6 | 9 nM | 8 nM
7 | B7 | 8 nM | 4 nM
8 | B8 | 4 nM | 6 nM
9 | B9 | 5 nM | 18 nM
10 | B10 | 11 nM | 13 nM
11 | B11 | 6 nM | 11 nM
12 | B12 | 9 nM | 14 nM
13 | B13 | 6 nM | 10 nM
14 | B14 | 6 nM | 4 nM
15 | B15 | 4 nM | 8 nM
16 | B16 | 6 nM | 11 nM

Row | Binder | Luciferase assay (EC50) | MLR assay (EC50)
17 | B17 | 9 nM | 7 nM
18 | B18 | 6 nM | 6 nM
19 | B19 | 15 nM | 24 nM
20 | B20 | 6 nM | 9 nM
21 | B21 | 10 nM | 5 nM
22 | B22 | 12 nM | 13 nM
23 | B23 | 6 nM | 4 nM
24 | B24 | 11 nM | 13 nM
25 | B25 | 5 nM | 3 nM
26 | B26 | 3 nM | 8 nM
27 | B27 | 6 nM | 8 nM
28 | B28 | 11 nM | 7 nM
29 | B29 | 12 nM | 46 nM
30 | B30 | 21 nM | 14 nM
31 | B31 | 17 nM | 22 nM
